# Source: patent US20090286279
# How the values were obtained:
# [1] = molecular target: sulfo-hirudin ([Leu^1, Thr^2]-hirudin with sulfotyrosine at position 63, expressed in E. coli from pBAD-HirudinTAG) (UniProt P01050)
# [2] = molecular target: [Leu^1, Thr^2]-63-desulfo-hirudin (Lepirudin (Refludan)) (UniProt P01050)
substance,measurement,setting,value
human α-thrombin (Diapharma),"thrombin activity (cleavage of fluorogenic substrate Boc-Asp(OBzl)-Pro-Arg-MCA, fluorescence intensity over time)",[1],"Cleavage of the fluorogenic substrate by thrombin, whose activity is inhibited to different degrees by sulfo-hirudin and desulfo-hirudin"
same,"thrombin activity (cleavage of fluorogenic substrate Boc-Asp(OBzl)-Pro-Arg-MCA, fluorescence intensity over time)",[2],"Cleavage of the fluorogenic substrate by thrombin, whose activity is inhibited to different degrees by sulfo-hirudin and desulfo-hirudin"
